# From patent publication US20140193415A1 (Hoffmann-La Roche, published 2014)
# B1: OA-F13B5-scFab-GA201 (bispecific antibody, human IgG1, kappa)
# heavy 1: not shown
# heavy 2: not shown
# light: DIQMTQSPSSLSASVGDRVTITCRASQGINNYLNWYQQKPGKAPKRLIYNTNNLQTGVPSRFSGSGSGTEFTLTISSLQPEDFATYYCLQHNSFPTFGQGTKLEIKRTVAAPSVFIFPPSDEQLKSGTASVVCLLNNFYPREAKVQWKVDNALQSGNSQESVTEQDSKDSTYSLSSTLTLSKADYEKHKVYACEVTHQGLSSPVTKSFNRGEC
# B2: OA-L31D11-scFab-GA201 (bispecific antibody, human IgG1, kappa)
# heavy 1: not shown
# heavy 2: not shown
# light: B1 light
# B3: OA-Ak18-scFab-GA201 (bispecific antibody, V domains shown)
# VH 1: QVELVESGGGVVQPGRSQRLSCAASGFTFSSYGMHWVRQAPGKGLEWVAIIWFDGSSTYYADSVRGRFTISRDNSKNTLYLQMNSLRAEDTAVYFCARELGRRYFDLWGRGTLVSVSS
# VL 1: EIVLTQSPATLSLSPGERATLSCRASQSVSSYLAWYQQKPGQAPRLLIYDASKRATGIPARFSGSGSGTDFTLTISSLEPEDFAVYYCQQRSKWPPWTFGQGTKVESK
# VH 2: QVQLVQSGAEVKKPGSSVKVSCKASGFTFTDYKIHWVRQAPGQGLEWMGYFNPNSGYSTYAQKFQGRVTITADKSTSTAYMELSSLRSEDTAVYYCARLSPGGYYVMDAWGQGTTVTVSS
# VL 2: DIQMTQSPSSLSASVGDRVTITCRASQGINNYLNWYQQKPGKAPKRLIYNTNNLQTGVPSRFSGSGSGTEFTLTISSLQPEDFATYYCLQHNSFPTFGQGTKLEIKRT
# Biological target: human EGFR on human tumor cells (A549, BxPC3) (human, UniProt P00533 25-1200)
# Test: cell-based or functional assay
Binder,Inhibition of EGFR phosphorylation (IC50) A549 [nM],Inhibition of EGFR phosphorylation (IC50) BxPC3 [nM]
B1,0.23,0.82
B2,0.19,0.47
B3,0.23,1.67
